# Assay results as given in patent US20220064312A1.
# Biological target: human CCR8 (human) (UniProt P51685)
# Assay: cell-based or functional assay
# Sequence of human CCR8 (human) (P51685 whole entry): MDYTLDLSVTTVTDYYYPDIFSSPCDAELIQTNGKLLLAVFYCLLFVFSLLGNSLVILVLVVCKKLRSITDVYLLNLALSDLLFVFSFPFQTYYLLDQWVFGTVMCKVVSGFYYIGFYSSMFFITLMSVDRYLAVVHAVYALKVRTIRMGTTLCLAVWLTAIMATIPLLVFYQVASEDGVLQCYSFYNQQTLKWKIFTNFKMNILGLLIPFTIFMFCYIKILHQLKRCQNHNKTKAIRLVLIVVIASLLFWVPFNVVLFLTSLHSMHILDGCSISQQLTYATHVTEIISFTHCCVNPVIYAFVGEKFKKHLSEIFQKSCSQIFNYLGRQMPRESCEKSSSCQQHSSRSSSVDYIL
IC50 ratio (WT IC50/mutant IC50),IC50 (n.d.: 10 nM or more),Binder
0.17,–,"h10A11 IGKV4-1/IGHV3-73 T31A (antibody, name in Kabat numbering, V domains shown) VH: EVQLVESGGGLVQPGGSLKLSCAASGFAFNAYALYWVRQASGKGLEWVGRIRSKSNNYATYYADSVKDRFTISRDDSKNTAYLQMNSLKTEDTAVYYCTRARFYYSDYGYAMDYWGQGTLVTVSS VL: DIVMTQSPDSLAVSLGERATINCRSSKSLLHSNGNTYLYWYQQKPGQPPKLLIYRMSNLASGVPDRFSGSGSGTDFTLTISSLQAEDVAVYYCMQHLEYPLTFGQGTKLEIKR"
–,> 10 nM,"h10A11 IGKV4-1/IGHV3-73 A33V (antibody, name in Kabat numbering, V domains shown) VH: EVQLVESGGGLVQPGGSLKLSCAASGFAFNTYVLYWVRQASGKGLEWVGRIRSKSNNYATYYADSVKDRFTISRDDSKNTAYLQMNSLKTEDTAVYYCTRARFYYSDYGYAMDYWGQGTLVTVSS VL: DIVMTQSPDSLAVSLGERATINCRSSKSLLHSNGNTYLYWYQQKPGQPPKLLIYRMSNLASGVPDRFSGSGSGTDFTLTISSLQAEDVAVYYCMQHLEYPLTFGQGTKLEIKR"
0.12,–,"h10A11 IGKV4-1/IGHV3-73 R50K (antibody, name in Kabat numbering, V domains shown) VH: EVQLVESGGGLVQPGGSLKLSCAASGFAFNTYALYWVRQASGKGLEWVGKIRSKSNNYATYYADSVKDRFTISRDDSKNTAYLQMNSLKTEDTAVYYCTRARFYYSDYGYAMDYWGQGTLVTVSS VL: DIVMTQSPDSLAVSLGERATINCRSSKSLLHSNGNTYLYWYQQKPGQPPKLLIYRMSNLASGVPDRFSGSGSGTDFTLTISSLQAEDVAVYYCMQHLEYPLTFGQGTKLEIKR"
0.44,–,"h10A11 IGKV4-1/IGHV3-73 Y32F (antibody, name in Kabat numbering, V domains shown) VH: EVQLVESGGGLVQPGGSLKLSCAASGFAFNTFALYWVRQASGKGLEWVGRIRSKSNNYATYYADSVKDRFTISRDDSKNTAYLQMNSLKTEDTAVYYCTRARFYYSDYGYAMDYWGQGTLVTVSS VL: DIVMTQSPDSLAVSLGERATINCRSSKSLLHSNGNTYLYWYQQKPGQPPKLLIYRMSNLASGVPDRFSGSGSGTDFTLTISSLQAEDVAVYYCMQHLEYPLTFGQGTKLEIKR"
0.56,–,"h10A11 IGKV4-1/IGHV3-73 V63L (antibody, name in Kabat numbering, V domains shown) VH: EVQLVESGGGLVQPGGSLKLSCAASGFAFNTYALYWVRQASGKGLEWVGRIRSKSNNYATYYADSLKDRFTISRDDSKNTAYLQMNSLKTEDTAVYYCTRARFYYSDYGYAMDYWGQGTLVTVSS VL: DIVMTQSPDSLAVSLGERATINCRSSKSLLHSNGNTYLYWYQQKPGQPPKLLIYRMSNLASGVPDRFSGSGSGTDFTLTISSLQAEDVAVYYCMQHLEYPLTFGQGTKLEIKR"
0.22,–,"h10A11 IGKV4-1/IGHV3-73 S52aT (antibody, name in Kabat numbering, V domains shown) VH: EVQLVESGGGLVQPGGSLKLSCAASGFAFNTYALYWVRQASGKGLEWVGRIRTKSNNYATYYADSVKDRFTISRDDSKNTAYLQMNSLKTEDTAVYYCTRARFYYSDYGYAMDYWGQGTLVTVSS VL: DIVMTQSPDSLAVSLGERATINCRSSKSLLHSNGNTYLYWYQQKPGQPPKLLIYRMSNLASGVPDRFSGSGSGTDFTLTISSLQAEDVAVYYCMQHLEYPLTFGQGTKLEIKR"
0.49,–,"h10A11 IGKV4-1/IGHV3-73 T57S (antibody, name in Kabat numbering, V domains shown) VH: EVQLVESGGGLVQPGGSLKLSCAASGFAFNTYALYWVRQASGKGLEWVGRIRSKSNNYASYYADSVKDRFTISRDDSKNTAYLQMNSLKTEDTAVYYCTRARFYYSDYGYAMDYWGQGTLVTVSS VL: DIVMTQSPDSLAVSLGERATINCRSSKSLLHSNGNTYLYWYQQKPGQPPKLLIYRMSNLASGVPDRFSGSGSGTDFTLTISSLQAEDVAVYYCMQHLEYPLTFGQGTKLEIKR"
0.47,–,"h10A11 IGKV4-1/IGHV3-73 K52bR (antibody, name in Kabat numbering, V domains shown) VH: EVQLVESGGGLVQPGGSLKLSCAASGFAFNTYALYWVRQASGKGLEWVGRIRSRSNNYATYYADSVKDRFTISRDDSKNTAYLQMNSLKTEDTAVYYCTRARFYYSDYGYAMDYWGQGTLVTVSS VL: DIVMTQSPDSLAVSLGERATINCRSSKSLLHSNGNTYLYWYQQKPGQPPKLLIYRMSNLASGVPDRFSGSGSGTDFTLTISSLQAEDVAVYYCMQHLEYPLTFGQGTKLEIKR"
0.55,–,"h10A11 IGKV4-1/IGHV3-73 A56V (antibody, name in Kabat numbering, V domains shown) VH: EVQLVESGGGLVQPGGSLKLSCAASGFAFNTYALYWVRQASGKGLEWVGRIRSKSNNYVTYYADSVKDRFTISRDDSKNTAYLQMNSLKTEDTAVYYCTRARFYYSDYGYAMDYWGQGTLVTVSS VL: DIVMTQSPDSLAVSLGERATINCRSSKSLLHSNGNTYLYWYQQKPGQPPKLLIYRMSNLASGVPDRFSGSGSGTDFTLTISSLQAEDVAVYYCMQHLEYPLTFGQGTKLEIKR"
0.03,–,"h10A11 IGKV4-1/IGHV3-73 Y59F (antibody, name in Kabat numbering, V domains shown) VH: EVQLVESGGGLVQPGGSLKLSCAASGFAFNTYALYWVRQASGKGLEWVGRIRSKSNNYATYFADSVKDRFTISRDDSKNTAYLQMNSLKTEDTAVYYCTRARFYYSDYGYAMDYWGQGTLVTVSS VL: DIVMTQSPDSLAVSLGERATINCRSSKSLLHSNGNTYLYWYQQKPGQPPKLLIYRMSNLASGVPDRFSGSGSGTDFTLTISSLQAEDVAVYYCMQHLEYPLTFGQGTKLEIKR"
0.22,–,"h10A11 IGKV4-1/IGHV3-73 I51L (antibody, name in Kabat numbering, V domains shown) VH: EVQLVESGGGLVQPGGSLKLSCAASGFAFNTYALYWVRQASGKGLEWVGRLRSKSNNYATYYADSVKDRFTISRDDSKNTAYLQMNSLKTEDTAVYYCTRARFYYSDYGYAMDYWGQGTLVTVSS VL: DIVMTQSPDSLAVSLGERATINCRSSKSLLHSNGNTYLYWYQQKPGQPPKLLIYRMSNLASGVPDRFSGSGSGTDFTLTISSLQAEDVAVYYCMQHLEYPLTFGQGTKLEIKR"
0.43,–,"h10A11 IGKV4-1/IGHV3-73 L34I (antibody, name in Kabat numbering, V domains shown) VH: EVQLVESGGGLVQPGGSLKLSCAASGFAFNTYAIYWVRQASGKGLEWVGRIRSKSNNYATYYADSVKDRFTISRDDSKNTAYLQMNSLKTEDTAVYYCTRARFYYSDYGYAMDYWGQGTLVTVSS VL: DIVMTQSPDSLAVSLGERATINCRSSKSLLHSNGNTYLYWYQQKPGQPPKLLIYRMSNLASGVPDRFSGSGSGTDFTLTISSLQAEDVAVYYCMQHLEYPLTFGQGTKLEIKR"
0.25,–,"h10A11 IGKV4-1/IGHV3-73 D61E (antibody, name in Kabat numbering, V domains shown) VH: EVQLVESGGGLVQPGGSLKLSCAASGFAFNTYALYWVRQASGKGLEWVGRIRSKSNNYATYYAESVKDRFTISRDDSKNTAYLQMNSLKTEDTAVYYCTRARFYYSDYGYAMDYWGQGTLVTVSS VL: DIVMTQSPDSLAVSLGERATINCRSSKSLLHSNGNTYLYWYQQKPGQPPKLLIYRMSNLASGVPDRFSGSGSGTDFTLTISSLQAEDVAVYYCMQHLEYPLTFGQGTKLEIKR"
1.6,–,"h10A11 IGKV4-1/IGHV3-73 S62T (antibody, name in Kabat numbering, V domains shown) VH: EVQLVESGGGLVQPGGSLKLSCAASGFAFNTYALYWVRQASGKGLEWVGRIRSKSNNYATYYADTVKDRFTISRDDSKNTAYLQMNSLKTEDTAVYYCTRARFYYSDYGYAMDYWGQGTLVTVSS VL: DIVMTQSPDSLAVSLGERATINCRSSKSLLHSNGNTYLYWYQQKPGQPPKLLIYRMSNLASGVPDRFSGSGSGTDFTLTISSLQAEDVAVYYCMQHLEYPLTFGQGTKLEIKR"
0.53,–,"h10A11 IGKV4-1/IGHV3-73 S52cT (antibody, name in Kabat numbering, V domains shown) VH: EVQLVESGGGLVQPGGSLKLSCAASGFAFNTYALYWVRQASGKGLEWVGRIRSKTNNYATYYADSVKDRFTISRDDSKNTAYLQMNSLKTEDTAVYYCTRARFYYSDYGYAMDYWGQGTLVTVSS VL: DIVMTQSPDSLAVSLGERATINCRSSKSLLHSNGNTYLYWYQQKPGQPPKLLIYRMSNLASGVPDRFSGSGSGTDFTLTISSLQAEDVAVYYCMQHLEYPLTFGQGTKLEIKR"
0.03,–,"h10A11 IGKV4-1/IGHV3-73 N53Q (antibody, name in Kabat numbering, V domains shown) VH: EVQLVESGGGLVQPGGSLKLSCAASGFAFNTYALYWVRQASGKGLEWVGRIRSKSQNYATYYADSVKDRFTISRDDSKNTAYLQMNSLKTEDTAVYYCTRARFYYSDYGYAMDYWGQGTLVTVSS VL: DIVMTQSPDSLAVSLGERATINCRSSKSLLHSNGNTYLYWYQQKPGQPPKLLIYRMSNLASGVPDRFSGSGSGTDFTLTISSLQAEDVAVYYCMQHLEYPLTFGQGTKLEIKR"
–,> 10 nM,"h10A11 IGKV4-1/IGHV3-73 R52K (antibody, name in Kabat numbering, V domains shown) VH: EVQLVESGGGLVQPGGSLKLSCAASGFAFNTYALYWVRQASGKGLEWVGRIKSKSNNYATYYADSVKDRFTISRDDSKNTAYLQMNSLKTEDTAVYYCTRARFYYSDYGYAMDYWGQGTLVTVSS VL: DIVMTQSPDSLAVSLGERATINCRSSKSLLHSNGNTYLYWYQQKPGQPPKLLIYRMSNLASGVPDRFSGSGSGTDFTLTISSLQAEDVAVYYCMQHLEYPLTFGQGTKLEIKR"
0.5,–,"h10A11 IGKV4-1/IGHV3-73 Y58F (antibody, name in Kabat numbering, V domains shown) VH: EVQLVESGGGLVQPGGSLKLSCAASGFAFNTYALYWVRQASGKGLEWVGRIRSKSNNYATFYADSVKDRFTISRDDSKNTAYLQMNSLKTEDTAVYYCTRARFYYSDYGYAMDYWGQGTLVTVSS VL: DIVMTQSPDSLAVSLGERATINCRSSKSLLHSNGNTYLYWYQQKPGQPPKLLIYRMSNLASGVPDRFSGSGSGTDFTLTISSLQAEDVAVYYCMQHLEYPLTFGQGTKLEIKR"
0.47,–,"h10A11 IGKV4-1/IGHV3-73 Y55F (antibody, name in Kabat numbering, V domains shown) VH: EVQLVESGGGLVQPGGSLKLSCAASGFAFNTYALYWVRQASGKGLEWVGRIRSKSNNFATYYADSVKDRFTISRDDSKNTAYLQMNSLKTEDTAVYYCTRARFYYSDYGYAMDYWGQGTLVTVSS VL: DIVMTQSPDSLAVSLGERATINCRSSKSLLHSNGNTYLYWYQQKPGQPPKLLIYRMSNLASGVPDRFSGSGSGTDFTLTISSLQAEDVAVYYCMQHLEYPLTFGQGTKLEIKR"
0.67,–,"h10A11 IGKV4-1/IGHV3-73 A60V (antibody, name in Kabat numbering, V domains shown) VH: EVQLVESGGGLVQPGGSLKLSCAASGFAFNTYALYWVRQASGKGLEWVGRIRSKSNNYATYYVDSVKDRFTISRDDSKNTAYLQMNSLKTEDTAVYYCTRARFYYSDYGYAMDYWGQGTLVTVSS VL: DIVMTQSPDSLAVSLGERATINCRSSKSLLHSNGNTYLYWYQQKPGQPPKLLIYRMSNLASGVPDRFSGSGSGTDFTLTISSLQAEDVAVYYCMQHLEYPLTFGQGTKLEIKR"
–,> 10 nM,"h10A11 IGKV4-1/IGHV3-73 Y35F (antibody, name in Kabat numbering, V domains shown) VH: EVQLVESGGGLVQPGGSLKLSCAASGFAFNTYALFWVRQASGKGLEWVGRIRSKSNNYATYYADSVKDRFTISRDDSKNTAYLQMNSLKTEDTAVYYCTRARFYYSDYGYAMDYWGQGTLVTVSS VL: DIVMTQSPDSLAVSLGERATINCRSSKSLLHSNGNTYLYWYQQKPGQPPKLLIYRMSNLASGVPDRFSGSGSGTDFTLTISSLQAEDVAVYYCMQHLEYPLTFGQGTKLEIKR"
